Source: patent US20200256849A1

How the values were obtained:
MART1 comPACT [1] = target: MART1 comPACT (UniProt P61769); assay: replicate of PE/APC comPACT tetramer dual staining, FACS
MART1 comPACT [2] = target: MART1 comPACT (UniProt P61769); assay: dual staining with tetramer, trimer+DNA, dextramer and dextramer+DNA, FACS
MART1 comPACT [3] = target: MART1 comPACT (UniProt P61769); assay: PE/APC comPACT tetramer dual staining, FACS

Chain of UniProt P61769 (P61769 21-119): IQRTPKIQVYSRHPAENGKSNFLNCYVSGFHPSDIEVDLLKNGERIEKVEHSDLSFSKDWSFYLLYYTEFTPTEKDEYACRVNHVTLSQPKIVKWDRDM

TCR against a MART1 antigen (F5) showed a tetramer staining (% of T cells) (MART1 comPACT [1]) greater than 99%, a % of gene edited cells stained (MART1 comPACT [2]) greater than 98% and a tetramer staining (% of T cells) (MART1 comPACT [3]) greater than 99%.
